B1: Eukaryotic initiation factor 4F subunit p150 (Saccharomyces cerevisiae), P39935 (parent)
chain: MTDETAHPTQSASKQESAALKQTGDDQQESQQQRGYTNYNNGSNYTQKKPYNSNRPHQQRGGKFGPNRYNNRGNYNGGGSFRGGHMGANSSNVPWTGYYNNYPVYYQPQQMAAAGSAPANPIPVEEKSPVPTKIEITTKSGEHLDLKEQHKAKLQSQERSTVSPQPESKLKETSDSTSTSTPTPTPSTNDSKASSEENISEAEKTRRNFIEQVKLRKAALEKKRKEQLEGSSGNNNIPMKTTPENVEEKGSDKPEVTEKTKPAEEKSAEPEVKQETPAEEGEQGEKGQIKEESTPKVLTFAERLKLKKQQKEREEKTEGKENKEVPVQEETKSAIESAPVPPSEQVKEETEVAETEQSNIDESATTPAIPTKSDEAEAEVEAEAGDAGTKIGLEAEIETTTDETDDGTNTVSHILNVLKDATPIEDVFSFNYPEGIEGPDIKYKKEHVKYTYGPTFLLQFKDKLNVKADAEWVQSTASKIVIPPGMGRGNRSRDSGRFGNNSSRGHDFRNTSVRNMDDRANSRTSSKRRSKRMNDDRRSNRSYTSRRDRERGSYRNEEKREDDKPKEEVAPLVPSANRWVPKFKSKKTEKKLAPDGKTELLDKDEVERKMKSLLNKLTLEMFDAISSEILAIANISVWETNGETLKAVIEQIFLKACDEPHWSSMYAQLCGKVVKELNPDITDETNEGKTGPKLVLHYLVARCHAEFDKGWTDKLPTNEDGTPLEPEMMSEEYYAAASAKRRGLGLVRFIGFLYRLNLLTGKMMFECFRRLMKDLTDSPSEETLESVVELLNTVGEQFETDSFRTGQATLEGSQLLDSLFGILDNIIQTAKISSRIKFKLIDIKELRHDKNWNSDKKDNGPKTIQQIHEEEERQRQLKNNSRSNSRRTNNSSNRHSFRRDAPPASKDSFITTRTYSQRNSQRAPPPKEEPAAPTSTATNMFSALMGESDDEE
partner: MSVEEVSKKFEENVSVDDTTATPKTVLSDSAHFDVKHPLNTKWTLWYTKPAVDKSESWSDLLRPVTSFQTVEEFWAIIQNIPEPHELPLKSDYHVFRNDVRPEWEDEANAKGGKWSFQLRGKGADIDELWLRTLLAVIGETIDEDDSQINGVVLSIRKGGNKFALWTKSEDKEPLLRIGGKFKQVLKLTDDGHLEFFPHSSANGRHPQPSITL

Variants of: B1
Details: with if4e_yeast CDC33, P07260

Variant	effect of a mutation on the interaction
E425D	decreasing interaction
L457A;L458A	decreasing interaction
K444A	decreasing interaction

Reference: IntAct's records for PubMed 10409688
